Experiment: soluble on expression in E. coli; label from the status in PepcDB or PDB records

| Sequence | soluble on expression in E. coli |
| --- | --- |
| MSLEFLEQEGQEVLTKEIKAGFCEITPSSITEQTTKPQLDETQLVDEYVHTKELETTPIPISFATKEVLFEEVFNTPSTQQVDESVLVNEYIELTQQIKNASEQVSSNHTHKFSVATEPAATKAVSETMLLDDYVEMVEQDVQAQTALPQAALDPTVSLTFSSPIDSNAILVYPEMKVPHVFDTVAPTTTTVPLDQTQLLDELVEVPVLTHTVTPAPLQPKAAPTNFALDQTQLVDELVTVPLTHTLVNESAPVTPVVVTSPAAEHSFSITTVDKANLTNALSQTVVIKPAEDSAHQSAVLDKEIATKQAQLQQLQAQIELRQAQLETPPVTYMGVEEYKLLPVQDVVPVQPTVSFEMTLLQEQLDKALKHNAALQIQLEEQLAKPLQYDQSPVLQERIELLQNQNTNLTQELNELQQKLFKSQNNSLLLARLEEENRTLKQHLQNNLPEANQLNFVLEKQLEQLQQDKHSLTLQIEQYKFDSKKHQEQLALIPSLRSEINSLETEVISLKQTNQRLSLIERENNFLKTEIKQLRETKLNDENTKYRNLLKQYELMRADSDAKLKELEHEQHLAHQHHQEQLAQLQRHNEALVKELDQVKATNFELGLAAQGFEQQKVVLEQKNSSLLASLQAAEENVQALGITNSELQNQLNVLEFTHKEKTAFDSKTLTLTKQQLEQTQFDLSLTQEQLATFKQQNQSLTDKLMASETQLNHLQQSDENLTQLQTQHELLQESYNKLQDEANHTQQQFHQAQNELDAAHQQLALFKQNNEELTDKCSNIQNELHDLNRVKTNWENLNTEHNLLQDKYAQQKEQMQHEHSNLAQIQAEHELLQESYNKVKAELNEIQITNLNEANAQYQDLLSAYELLQSNHNKLKQELQVLNQVNLEKQQLAQKLHNTHQSLSQTHAELTQLQAAYNNLQATPPVSDELLEQFNQVQLEKQRLLQQNLALVHELQYFNELNSSQTHEIKTKQDETVKEVIIVEKEIPVPPEKKPRLKKRDIVIENKEDALGKLSKKERIQAYAERLAKINGKQEGHHHHHH | not soluble |
| MELERIVSAALLAFVQTHLPEADLSGLDEVIFSYVLGVLEDLGPSGPSEENFDMEAFTEMMEAYVPGFAHIPRGTIGDMMQKLSGQLSDARNKENLQPQSSGVQGQVPISPEPLQRPEMLKEETRSSAAAAADTQDEATGAEEELLPGVDVLLEVFPTCSVEQAQWVLAKARGDLEEAVQMLVEGKEEGPAAWEGPNQDLPRRLRGPQKDELKSFILQKYMMVDSA | soluble |
| MSEHQSLPAPEASTEVRVAIVGVGNCASSLVQGVEYYYNADDTSTVPGLMHVRFGPYHVRDVKFVAAFDVDAKKVGFDLSDAIFASENNTIKIADVAPTNVIVQRGPTLDGIGKYYADTIELSDAEPVDVVQALKEAKVDVLVSYLPVGSEEADKFYAQCAIDAGVAFVNALPVFIASDPVWAKKFTDARVPIVGDDIKSQVGATITHRVLAKLFEDRGVQLDRTMQLNVGGNMDFLNMLERERLESKKISKTQAVTSNLKREFKTKDVHIGPSDHVGWLDDRKWAYVRLEGRAFGDVPLNLEYKLEVWDSPNSAGVIIDAVRAAKIAKDRGIGGPVIPASAYLMKSPPEQLPDDIARAQLEEFIIG | soluble |
| MSLQNPFVPQLVYIEPRALEYPLGQELQDKFENMGIEIRETTSHNQVRNIPGKNHLQQYRNAKSTLVIGVRKTLKFDSSKPSAEYAIPFATGCMGHCHYCYLQTTMGSKPYIRTYVNVEEILDQADKYMKERAPEFTRFEASCTSDIVGIDHLTHTLKRAIEHFGQSDLGKLRFVTKFHHVDHLLDAKHNGKTRFRFSINADYVIKNFEPGTSPLDKRIEAAVKVAKAGYPLGFIVAPIYIHEGWEEGYRHLFEKLDAALPQDVRHDITFELIQHRFTKPAKRVIEKNYPKTKLELDEEKRRYKWGRYGIGKYIYQKDEEHALREALESYIDTFFPNAKIEYFTEGHHHHHH | soluble |
| MSLSDRVKKIESFTLTLPRETPYLGKPRPGEEPNGRGYLVRKANRTVYPTFDRSVLVRIETENGAVGWGETYGLVAPRATMEIIDDLLADFTIGRDPFDAAAIHDDLYDLMRVRGYTGGFYVDALAAIDIALWDLAGKLAGLPVCKLLGGQRRDRIAAYISGLPEDTRAKRAELAAAWQAKGFSSFKFASPVADDGVAKEMEILRERLGPAVRIACDMHWAHTASEAVALIKAMEPHGLWFAEAPVRTEDIDGLARVAASVSTAIAVGEEWRTVHDMVPRVARRALAIVQPEMGHKGITQFMRIGAYAHVHHIKVIPHATIGAGIFLAASLQASAALANVDCHEFQHSIFEPNRRLLVGDMDCLNGEYVVPTGPGLGVEPSKEAQGLLKKHEGHHHHHH | soluble |
| MSDEAWKQTLICESINDKIGYWEYLAVTDKRRRSRNKAQSSGAENYKKVLEEQQRIYTAGGMGYGPEMYQVISNPMRNQKRVNNIEGSKIFAAMNSGAPRIALDIQYVEEMNKRDSGELGNQMQYTISENFSAKSPFVLDFVNSPSKEFLEQWLSKSVGYYTGNYINQTILPDFSTKGIKEFYGKSANTIYISSNARDVLDGPLTADVIGICVTMGRKREALSAARRANIRAYRLPIHRYVKWKSGPQYLPFPNIMNVLREVYMNGGDWSRALHNNISKRHLVNADDDEQKKMQMLRRRAREEERRELTEAIMSATKG | not soluble |
| MGSDKIHHHHHHMAKKKTKFMCQECGYESAKWMGKCPGCQSWNSMVEEFTEVKAKSSRSYVTSGAGIAKPQPITKVEREQEPRIDTSMKELNRVLGGGIVPGSLVLVGGDPGIGKSTLLLQLSARLADLKQRVLYISGEESVKQTKIRSDRLGVLSDHLYVLAETDMEKIEQAIGEVDPTLVIIDSIQTVYQDEITSAPGSVAQVRECTASFMRIAKTTGVAIFIVGHVTKQGAIAGPKLLEHMVDSVLYFEGERHHTYRILRAVKNRFGSTNEMGIFEMKESGLEEVANPSEIFLEDRSSGVAGSTVVASMEGTRPVLVELQALISPTSFGNPRRMATGVDHNRISLLMAVLEKRVGMLLQNQDAYVNVAGGVRLDEPAIDLGIAVSIASSFRNQHTNPHEVVIGEIGLTGEVRRVSRIDQRVNEAAKLGFKRVIIPDKNLGGWTIPSTIEVIGVSTVQDALEVTLGR | not soluble |
| MAHHHHHHMKLEFAHEAIVSRRRLSKFGYSLQTEKWTLHVNKKKRERKRKDSKKREEGEVIITKNANEREIKTVEESKHHTTCRLWFANVAACMYFLALATEELNTILQTEVFSKQRLIYWQMYHMPCSHISCMSARIPPLPPFRLYVTLKPKMRGSIFANISVGRMVGYEAAWSSTYSKRKR | not soluble |
| GMNISNLINADVDEKGFVSDKLRDNFFQIVRNRPENRTCFDCESRNPTWLSLSFAVFICLNCSSDHRKMGVHISFVRSSDLDKFTPIQLVRMDIGGNGRARNYFKQVLGVNFSPKTKEYASSICGRQYKQILDSEISE | soluble |
| MSLDKPVIQIHTDNSSLIFRVADNGRLYQSYLGKKLNHEADISHLPQGTEAYITHGMEDYFEPAIHILHNDGNPSLLLKYVSHETKAVSQGVNETIITLGDDKYPVTVKLHYVTYPAEDIIKTYTEISHKEKKPVVLHQYASSMLHLNRAKYYLTEFSGDWAHEANISDQPLEFGKKVLDTKLGARANMFTPPFFQLSLDQLATENCGEVLVGTLGWTGNFRFTFEVDNKNELRIISGINPYASEYYLPAGVVFRTPDFYFTYSANGKGKASRNFHDWARRYQLKDGDETRMTLLNNWEATYFDFNEEKLIGLIGDAAGLGVDMFLLDDGWFANKYPRSSDHQGLGDWDETADKLPNGIGRLVEEATKKGIKFGLWIEPEMVNPKSELYEKHKDWVIHLPNRDEYYFRNQLVLDLSNPKVQDFVFGVVDDLMTKYPGIAFFKWDCNSPITNIYSSYLKEKQSHLYIDYVRGLYNVLERIKTKYPDLPMMLCSGGSGRIDYETLRYFTEFWPSDNTDPIERLFIQWGYSQLFPAKTLCAHVTTWNHDASIKFRTDVAMMGKLGFDIKLSDLNDNEKKFCRDAVTNYNHLKPVVLEGDMYRLVSPYSGNHTSTQYVGKDKKGAVVFAFDIYSRYGEKLLPVRLQGLDAGRQYRVKEINLMPGTNSSLQGNGELFSGEYLMTVGLNIFTGQRLNSRVIEVVAEEGHHPITTDPNSSSVDKLAAALEHHHHHH | soluble |
| MLRRRTFLSWSSGKDSAWALHVLRQDPHVDVIGLFCTVNKVFDRVVMHGVRVALLQQQAESAGLPLHIIEIPYPCSNDEYASAMSAFVDSARKENIECFAFGDLLLEDVRQYREDRLNGTGITPIFPLWGIPTKTLSREMVAGGLKAVITCIDPKRIPESFAGREYNESFLDDIPGSVDPCGEYGEFHTFSFDGPMFQNPIDVVLGETVHRDGFVFTDLLSLTSSTEPTH | not soluble |
| MAAKVEPFWKRKTLAQLDQDEWESLCDGCGLCCLQKLEDEDDGSVYYTRIACKLLDLQSCRCTNYAERIRFVPDCIQLTPAQADEFQWLPPTCGYRLVAEGKDLPLWHHLVCGDPERVHKERISQSGRMLSETQVAEDDWEDYLIFRAG | not soluble |
| MSTPRIVVGVSGGVDSSVAAWKLAQQGEPIAGLFMQNWADDGSGDCRAEDDRRDAVAVCGVLGIPFHFRDFSGEYWSDVFEHFLAEYAAGRTPNPDVLCNREVKFKHFLDAAQALGAERIATGHYAQVAHRGGRWRLLRGADRGKDQSYFLHQLGQTQLAATLFPIGDLEKSTLRRIAQDAGLPTHAKKDSTGICFIGERDFREFLGRYLPARTGEIRDPQGQRIAEHPGVFYFTLGQREGLNIGGVRGRAAAPWYVVGKDVANNVLYVDQDRDSPLLQSRWLQSEQAHWVTGAPPARRFSCTAQTRYRQPDESCTVDVQDDGSVQVRFERPQRAVTPGQSLVLYDGEECLGGAVIAATDAPLERQLAGSSFSSEVVALEHHHHHH | not soluble |
| MIGVVGGGIAGLSAAYRLQQRGHEVRVFEASEDLGGLAATYETAGDPIEKFYHHLSKSEETIVDLAEELGLGDAVEWHIGENAYYVDGVVHPMDKPWEILSYPHLSLYDTFRLGMLVLDIDVRGGVPSFDTYERLEDFEGVPIEEFVVDHTTRGVYENFFEPLLDAKFGDRKDDVSAAWLLGRVKFRGERDILNGEILGYFDGGFGRLLDALVDAVGRDNIATGTRVSDIDTSGGTVSSLTATDGTETTVHDVDSVVVATMPNVLEALTGYTCDIDFQGTVCSVISMDEPLLDTYWLNIADDAPFGALIEHTNFVSAERYGGEHLLYVARYIQDESEAIWQQSDDEVAETWLQGIESLFPDFDRDAVNWIRTGRNPRTAPVYERGYLDMVIPYDLSDAVADGLYYAGMASRAQYPERSLNGGIVAGFECADRIARDPSAATKTDESPLSEAQRLEHHHHHH | not soluble |
| MPLFKERNCSVSIVLDSRTRRKNAYEFPLSLRFTIDRKFFYLTVGSSFSEKKFSDICNATKCKSENYKLQKEWKDTFVPKYKKVLSNLNKGGILTFEMVRQCIIGEDVVLSEEETTKSQSFISIWEQVINGFKTDDGGARFTTAESYECALKSFRKILGANTIKGFCISAAEIQKWKDGMHNGVKDENGAVVGKISDTTVGIYLRCCRAVWNRCVHEGFLKDIPYPFSNKKEKGLVSIPKSAKRKQNFLNVAQMTELYNLFVSKEYPEHWTEEYTQRAHYSLGLFLAQYLCNGFNMADAGRLTYDNYYYKTDGKAFRFNRKKTSRRSADGSEVIVPIIPPLQYVLDEIAAPPTRDGFVFPDILKGAETEELRRKYTVQENSNVKDRVIKICHEALHWDKSICPSGTWCRHSFATNLHNAGVDMDYISESMGHASSDHAITQIYIEHYPLDIQMQNNSKLLNLGETSERDALLAKLANMSTEELAKLFA | not soluble |
| MSEQLVTPENVTTKDGKINLLDLNRQQMREFFKDLGEKPFRADQVMKWMYHYCCDNFDEMTDINKVLRGKLKEVAEIRAPEVVEEQRSSDGTIKWAIAVGDQRVETVYIPEDDRATLCVSSQVGCALECKFCSTAQQGFNRNLRVSEIIGQVWRAAKIVGAAKVTGQRPITNVVMMGMGEPLLNLNNVVPAMEIMLDDFGFGLSKRRVTLSTSGVVPALDKLGDMIDVALAISLHAPNDEIRDEIVPINKKYNIETFLAAVRRYLEKSNANQGRVTIEYVMLDHVNDGTEHAHQLAELLKDTPCKINLIPWNPFPGAPYGRSSNSRIDRFSKVLMSYGFTTIVRKTRGDDIDAACGQLAGDVIDRTKRTLRKRMQGEAIDIKAV | soluble |
